One assay deals with T1, RelCt^NTD (Chlorobaculum tepidum, UniProt Q8KC80).
T1 construct: gene relA; N-terminal catalytic region (HD + SYNTH domains), C-terminal regulatory domains removed; N-terminal His-TEV tag cleaved; recombinant, gene from GenScript
T1 sequence (Q8KC80 1-390 limits assumed): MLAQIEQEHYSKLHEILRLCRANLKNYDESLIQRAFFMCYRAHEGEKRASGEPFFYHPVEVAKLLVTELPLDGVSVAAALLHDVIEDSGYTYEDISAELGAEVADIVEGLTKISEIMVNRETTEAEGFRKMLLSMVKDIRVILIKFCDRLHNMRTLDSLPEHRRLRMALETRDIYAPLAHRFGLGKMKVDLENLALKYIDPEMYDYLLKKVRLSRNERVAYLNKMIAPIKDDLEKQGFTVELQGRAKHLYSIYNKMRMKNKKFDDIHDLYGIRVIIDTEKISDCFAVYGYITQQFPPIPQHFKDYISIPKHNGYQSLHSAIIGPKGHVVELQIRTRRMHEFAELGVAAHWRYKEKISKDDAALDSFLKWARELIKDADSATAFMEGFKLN
The assay is described as follows: ITC. It is filed as binding. Particulars: 15 °C, pH 7.5, 10 mM MgCl2, no nanobody; SYNTH active site; non-hydrolysable ATP analogue; also crystal structure with GDP (2.65 Å).

A further assay concerns the target T2, full-length E. coli RelA (Escherichia coli (K-12 entry), UniProt P0AG20).
T2 construct: RelA, long RSH (p)ppGpp synthetase, Escherichia coli, full length; also called RelAEc; source: construct generated by GenScript
The assay is described as follows: ITC; nanobody titrated into the RSH enzyme in the cell; Affinity-ITC, 15 °C, 2 μL injections, stirring 75 r.p.m., triplicate; mean KD ± SD. The conditions noted are these: both partners purified. (ITC needs no label: the signal is the heat of the interaction.)

The target of assay [1] is T3, RelCt^NTD, N-terminal catalytic region of C. tepidum Rel (Chlorobaculum tepidum).
T3 chain: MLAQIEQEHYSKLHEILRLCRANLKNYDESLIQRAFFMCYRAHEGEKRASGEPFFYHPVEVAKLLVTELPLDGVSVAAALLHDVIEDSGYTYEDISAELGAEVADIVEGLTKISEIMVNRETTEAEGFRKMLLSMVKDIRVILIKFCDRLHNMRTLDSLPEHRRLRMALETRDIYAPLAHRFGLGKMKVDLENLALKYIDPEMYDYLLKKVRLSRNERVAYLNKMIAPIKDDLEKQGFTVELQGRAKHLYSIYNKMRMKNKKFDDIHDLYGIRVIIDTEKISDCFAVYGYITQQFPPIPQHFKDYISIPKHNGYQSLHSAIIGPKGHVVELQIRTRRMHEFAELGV
The assay is described as follows: ITC.

Assay [2] concerns the target T4, full-length Rel from Chlorobaculum tepidum (Chlorobaculum tepidum TLS, UniProt Q8KC80).
T4 construct: Rel, bifunctional (p)ppGpp synthetase/hydrolase (long RSH), Chlorobaculum tepidum, full length; PDB 9S6K and 9S6L hold the NTD of this protein; also called RelCt; RelACt (as printed once); source: construct generated by GenScript
The assay is described as follows: ITC; nanobody titrated into the RSH enzyme in the cell; Affinity-ITC, 15 °C, 2 μL injections, stirring 75 r.p.m., triplicate; mean KD ± SD. The conditions noted are these: both partners purified.

For assay [3], the target named is T4, full-length Rel from Chlorobaculum …. The assay is described as follows: cell-based or functional assay.
The target of assay [4] is T5, RelCt^D283A (Chlorobaculum tepidum).
T5 chain: T3 chain with D283A
The assay is described as follows: ITC.

Another assay deals with T6, RelCt^A286K (Chlorobaculum tepidum).
T6 chain: T3 chain with A286K
The assay is described as follows: ITC.

In another assay the target is T7, RelCt^K280A (Chlorobaculum tepidum).
T7 chain: T3 chain with K280A
The assay is described as follows: ITC.

Assay [5] concerns the target T5, RelCt^D283A. The assay is described as follows: ITC.
Another assay deals with T8, RelCt^Y290A (Chlorobaculum tepidum).
T8 chain: T3 chain with Y290A
The assay is described as follows: ITC.

In assay [6] the target is T9, RelCt^NTD, N-terminal catalytic region of C. tepidum Rel (Chlorobaculum tepidum TLS).
T9 construct: Rel, Chlorobaculum tepidum, N-terminal catalytic region (HD and SYNTH domains); His-TEV tag removed with TEV protease; source: recombinant, purified (HisTrap, SEC, TEV cleavage, reverse IMAC, SEC); construct generated by GenScript; not shown: His tag, N-terminal, cleaved
T9 chain: T3 chain
The assay is described as follows: HDX-MS; RelCt^NTD alone against its complex with the nanobody, 50 to 70 μM; labelling 0.5, 5 or 60 min at 20 °C in 50 mM HEPES, 500 mM KCl, 500 mM NaCl, 2 mM MgCl2, 1 mM TCEP, 0.002% mellitic acid (pD 7.5); triplicate. Particulars: both partners purified.

For assay [7], the target named is RelCt^R215E (Chlorobaculum tepidum). The assay is described as follows: ITC; nanobody titrated into the RSH enzyme in the cell; Affinity-ITC, 15 °C, 2 μL injections, stirring 75 r.p.m., triplicate; mean KD ± SD.

Where a chain is given by its changes, count along the chain named. Where two headings read alike, the source gives them in different places.

T2 sequence (P0AG20 whole entry): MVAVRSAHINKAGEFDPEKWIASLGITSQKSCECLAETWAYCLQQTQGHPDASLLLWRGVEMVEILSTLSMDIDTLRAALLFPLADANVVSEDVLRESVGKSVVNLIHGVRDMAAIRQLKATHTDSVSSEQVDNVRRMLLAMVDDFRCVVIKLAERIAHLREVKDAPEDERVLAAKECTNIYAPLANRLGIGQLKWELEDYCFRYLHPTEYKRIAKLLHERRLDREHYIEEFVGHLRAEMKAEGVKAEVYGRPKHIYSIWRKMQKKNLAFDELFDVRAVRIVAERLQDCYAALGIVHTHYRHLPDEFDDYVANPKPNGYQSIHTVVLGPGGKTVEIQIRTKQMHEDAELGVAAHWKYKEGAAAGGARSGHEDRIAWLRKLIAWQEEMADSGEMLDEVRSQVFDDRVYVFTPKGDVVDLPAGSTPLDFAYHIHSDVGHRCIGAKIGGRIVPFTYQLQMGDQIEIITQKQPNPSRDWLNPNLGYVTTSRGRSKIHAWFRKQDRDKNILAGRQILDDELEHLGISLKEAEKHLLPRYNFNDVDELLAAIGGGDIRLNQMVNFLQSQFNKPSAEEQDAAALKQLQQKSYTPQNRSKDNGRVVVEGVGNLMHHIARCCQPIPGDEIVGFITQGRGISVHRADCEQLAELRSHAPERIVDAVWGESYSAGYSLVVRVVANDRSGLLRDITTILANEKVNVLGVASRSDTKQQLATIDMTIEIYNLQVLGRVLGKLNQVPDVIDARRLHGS

In turn, `Nc1ncnc2c1ncn2[C@@H]1O[C@H](COP(=O)(O)CP(=O)(O)OP(=O)(O)O)[C@@H](O)[C@H]1O` [APCPP] registered a Kd at RelCt^NTD of 37.9 µM.

B1: Nb94 (VHH)
VHH: QVQLVESGGGMVQPGGSLRLSCAASGFTFSTYSMGWFRQAPGQEREFVAAISWSGDSAYYADSVKGRFTISRDNAKNTVYLQMNSLKFEDTAVYYCNADLDGLGYDYWGQGTQVTVS
notes: llama nanobody selected against E. coli RelA; Expressed from the pMESy4 plasmid; also called nanobody 94; source: E. coli WK6, periplasmic extraction, purified (Ni-NTA IMAC, SEC)
With B1, binding in the assay with full-length E. coli RelA was characterised by a dissociation constant (Kd) of 0.013 µM.

B2: Nb898 (VHH)
VHH: QVQLQESGGGLVQAGGSLRLSCAASGSIESINAMAWYRQAPGKPRELVAVIAKSDGSTTYAVPVKGRFTISRDDAKNTVYLQMNSLKPEDTAIYYCNKIPNFTYWGQGTQVTVSS
notes: llama nanobody selected against C. tepidum Rel; Expressed from the pMESy4 plasmid; source: E. coli WK6, periplasmic extraction, purified (Ni-NTA IMAC, SEC)
Regarding B2, the Kd stood at 0.19 µM in assay [1] and 0.186 µM in [2]. Besides, the “SYNTH activity (turnover of ppGpp synthesis) of RelCt in the presence of Nb898, HPLC” value in assay [3] is about 11 fold.

B3: Nb898 (VHH)
VHH: B2 VHH
modifications: form not printed for this variant; NTD taken because the methods purify 'RelCtNTD and variants' (full length possible); limits from 9S6K entity
Regarding B3, the Kd with RelCt^D283A [4] came out at 0.2 µM; in the assay with RelCt^A286K, 12 µM; with RelCt^K280A, 2.2 µM; with RelCt^D283A [5] it was 0.201 µM; with RelCt^Y290A, 1.1 µM.

B4: Nb585 (VHH)
VHH: QVQLQESGGGLVQAGGSLRLSCAASGFTFEDYTIGWFRQAPGKEREGVSLISNSDGFTSYADSVKGQFTISSENAKNTVYLQMDNLKPEDTAVYYCAATEVLAHLMWRPSNWGYWGQGTQVTV
notes: llama nanobody selected against C. tepidum Rel; Expressed from the pMESy4 plasmid; also called nanobody 585; source: E. coli WK6, periplasmic extraction, purified (Ni-NTA IMAC, SEC)
As to B4, the binding result in assay [6] is recorded as “binds”. In assay [7], this molecule displayed a fold drop in affinity against unsubstituted RelCt of 28 fold. The Kd in [2] worked out at 0.021 µM. The “HD (ppGpp hydrolase) activity of RelCt in the presence of Nb585, HPLC” value in assay [3] was found to be 2 fold.

B5: Nb120 (VHH)
VHH: QVQLVESGGGLVQPGGSLRLSCAASGTIRSLNAMAWYRQAPGKERELAARISSGGTTTYADSVKGRFTISRDNAKNTLYLQMNSLKPEDTAVYYCKANRFSTYGYRDDIWGQGTQVTVS
notes: control nanobody selected against a different target; also called control Nb120; source: E. coli WK6, periplasmic extraction, purified (Ni-NTA IMAC, SEC)
Take B5: the binding result with full-length E. coli RelA is given as “no binding”.

B6: Nb96 (VHH)
VHH: QVQLQESGGGLVQAGGSLRLSCAASGSIFDIKVMAWYRQAPGKSRELVAVHASADDSTTYEKSVKGRFTISRDNAKNTVYLQMNSLKPEDTAIYYCNRIPNFTHWGQGTQVTVS
notes: llama nanobody selected against E. coli RelA; Expressed from the pMESy4 plasmid; also called nanobody 96; source: E. coli WK6, periplasmic extraction, purified (Ni-NTA IMAC, SEC)
As to B6, in the assay with full-length E. coli RelA, the affinity, expressed as Kd, was 0.08 µM.

For orientation: Kd means the constant that tells how readily two partners part at equilibrium. Low values mean higher affinity, high ones lower affinity.

The values are drawn from PMC13376610, “Nanobody-mediated control of long RSH Rel and RelA catalysis by restriction of their conformational landscape” (Nature Communications, 2026).
